T1: BARD1 (human, UniProt Q99728 1-777)
T1 sequence (looked up): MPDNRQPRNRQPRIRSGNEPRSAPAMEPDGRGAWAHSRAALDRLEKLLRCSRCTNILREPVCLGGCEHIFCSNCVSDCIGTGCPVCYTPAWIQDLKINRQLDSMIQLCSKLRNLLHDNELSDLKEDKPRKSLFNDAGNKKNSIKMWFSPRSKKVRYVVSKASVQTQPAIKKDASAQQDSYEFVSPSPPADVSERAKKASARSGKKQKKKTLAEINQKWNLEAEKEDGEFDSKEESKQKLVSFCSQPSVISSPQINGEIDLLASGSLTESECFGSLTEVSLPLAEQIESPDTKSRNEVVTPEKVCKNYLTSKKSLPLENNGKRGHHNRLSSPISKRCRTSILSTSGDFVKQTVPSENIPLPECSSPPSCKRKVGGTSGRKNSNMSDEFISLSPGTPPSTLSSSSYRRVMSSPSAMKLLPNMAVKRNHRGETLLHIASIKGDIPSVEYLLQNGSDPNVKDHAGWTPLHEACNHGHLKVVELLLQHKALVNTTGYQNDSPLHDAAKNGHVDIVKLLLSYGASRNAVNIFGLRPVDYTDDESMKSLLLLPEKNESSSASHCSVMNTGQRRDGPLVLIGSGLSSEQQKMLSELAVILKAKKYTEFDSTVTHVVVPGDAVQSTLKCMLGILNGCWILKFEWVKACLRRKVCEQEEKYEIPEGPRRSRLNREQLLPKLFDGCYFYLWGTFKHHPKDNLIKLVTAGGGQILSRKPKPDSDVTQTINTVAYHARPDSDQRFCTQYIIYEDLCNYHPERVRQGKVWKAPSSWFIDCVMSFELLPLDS

B1: RAD51 (natural protein, human, UniProt Q06609 1-339, looked up)
chain: MAMQMQLEANADTSVEEESFGPQPISRLEQCGINANDVKKLEEAGFHTVEAVAYAPKKELINIKGISEAKADKILAEAAKLVPMGFTTATEFHQRRSEIIQITTGSKELDKLLQGGIETGSITEMFGEFRTGKTQICHTLAVTCQLPIDRGGGEGKAMYIDTEGTFRPERLLAVAERYGLSGSDVLDNVAYARAFNTDHQTQLLYQASAMMVESRYALLIVDSATALYRTDYSGRGELSARQMHLARFLRMLLRLADEFGVAVVITNQVVAQVDGAAMFAADPKKPIGGNIIAHASTTRLYLRKGRGETRICKIYDSPCLPEAEAMFAINADGVGDAKD
B2: GST-BARD1^123-162 (domain or fragment, human, UniProt Q99728 123-162, looked up)
chain: LKEDKPRKSLFNDAGNKKNSIKMWFSPRSKKVRYVVSKAS

Columns and labels:
[1] = target: BRCA1^1-500-BARD1 complex ( | human, UniProt P38398 1-500; Q99728 1-777); assay: pull-down
[2] = target: BRCA1^Δ758-1064-BARD1 complex ( | human, UniProt P38398 1-1863; Q99728 1-777, Δ758-1064); assay: pull-down
BRCA1-BARD1 complex = BRCA1-BARD1 complex ( | human, UniProt P38398 1-1863; Q99728 1-777); assay: pull-down
BRCA1 = BRCA1 (UniProt P38398 1-1863); assay: far-Western, overlay or dot blot
BARD1 = target: T1, BARD1; assay: far-Western, overlay or dot blot
RAD51 = target: B1; assay: pull-down

Measured: binding result

B1
not listed: RAD51
binds: all other assays above

B2
binds: RAD51

Reference: publication PMC5800781 (Nature, 2017)
